Test results taken from patent US20150197542A1 (SAMSUNG ELECTRONICS, published 2015).

Biological target: T1, human c-Met/Fc fusion protein (R&D Systems) (human, UniProt P08581 25-932)
T1 construct: Bought reagent; also called human c-Met/Fc protein; not shown: Fc part of the bought fusion
Test: ELISA, human c-Met/Fc fusion protein coated at 2 µg/mL, hybridoma culture, anti-mouse IgG-HRP
Procedure: Human c-Met/Fc fusion protein was seeded in an amount of 50 μL (2 μg/mL)/well to microtiter plates and allowed to adhere to the surface of each well. The antibody that remained unbound was removed by washing.
The hybridoma cell culture obtained in Reference Example 1.1.2 was added in an amount of 50 μL to each well of the plates and incubated for 1 hour. The cells remaining unreacted were washed out with a sufficient amount of Tris-buffered saline and Tween 20 (TBST). Goat anti-mouse IgG-horseradish peroxidase (HRP) was added to the plates and incubated for 1 hour at room temperature. The plates were washed with a sufficient amount of TBST, followed by reacting the peroxidase with a substrate (OPD). Absorbance at 450 nm was measured on an ELISA reader.

T1 sequence (P08581 25-932 limits assumed): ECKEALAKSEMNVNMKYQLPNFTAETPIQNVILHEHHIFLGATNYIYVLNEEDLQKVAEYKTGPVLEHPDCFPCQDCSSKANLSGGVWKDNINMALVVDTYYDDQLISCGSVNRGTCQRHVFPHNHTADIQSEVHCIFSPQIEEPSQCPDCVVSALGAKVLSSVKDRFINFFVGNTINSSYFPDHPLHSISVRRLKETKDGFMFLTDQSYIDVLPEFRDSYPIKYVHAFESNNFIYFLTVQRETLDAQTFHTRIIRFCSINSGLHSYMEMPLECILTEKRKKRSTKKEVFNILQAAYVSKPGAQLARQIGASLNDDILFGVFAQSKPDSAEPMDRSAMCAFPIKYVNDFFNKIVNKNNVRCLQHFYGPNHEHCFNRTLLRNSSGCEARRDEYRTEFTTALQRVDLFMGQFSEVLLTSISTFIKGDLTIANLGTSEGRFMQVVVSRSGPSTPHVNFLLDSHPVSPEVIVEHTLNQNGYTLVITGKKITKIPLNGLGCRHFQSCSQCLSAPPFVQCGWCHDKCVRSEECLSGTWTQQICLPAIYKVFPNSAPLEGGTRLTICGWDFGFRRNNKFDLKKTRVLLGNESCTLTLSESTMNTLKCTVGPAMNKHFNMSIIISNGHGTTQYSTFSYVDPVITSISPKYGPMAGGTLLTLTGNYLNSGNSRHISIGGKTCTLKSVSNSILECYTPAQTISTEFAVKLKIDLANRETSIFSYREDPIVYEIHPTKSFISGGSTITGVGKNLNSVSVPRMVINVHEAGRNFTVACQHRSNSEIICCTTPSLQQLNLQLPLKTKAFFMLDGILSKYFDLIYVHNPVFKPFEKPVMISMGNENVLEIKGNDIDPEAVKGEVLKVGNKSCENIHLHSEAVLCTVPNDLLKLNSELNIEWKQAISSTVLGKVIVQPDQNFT

- binding result: binds
B1: AbF46, mouse monoclonal antibody to c-Met (hybridoma KCLRF-BP-00220) (antibody, V domains shown)
VH: EVKLVESGGGLVQPGGSLRLSCATSGFTFTDYYMSWVRQPPGKALEWLGFIRNKANGYTTEYSASVKGRFTISRDNSQSILYLQMDTLRAEDSATYYCARDNWFAYWGQGTLVTVSA
VL: DILMTQSPSSLTVSAGEKVTMSCKSSQSLLASGNQNNYLAWHQQKPGRSPKMLIIWASTRVSGVPDRFIGSGSGTDFTLTINSVQAEDLAVYYCQQSYSAPLTFGAGTKLELK
notes: Tested as hybridoma culture supernatant in the screening ELISA; also called mouse antibody AbF46
